{"source": "patent US20020103152", "tested_on": "Sleeping Beauty transposase (SB) (synthetic construct (salmonid Tc1-like, reconstructed)?)", "test": "cell_activity", "conditions": "mouse liver, pRSV-βgeo without terminal repeats; 2-4% with repeats", "data": [{"substance": "phAAT / pRSV-βgeo plasmids lacking terminal repeats", "values": [{"measurement": "activity (% of hepatocytes)", "value": "< 0.01"}]}]}
